In patent US6087375A, “Methods of treating or preventing thromboses” (priority 1999, dated 2000):

What was measured:
[1] = biological target: thrombin from human plasma (Homo sapiens, UniProt P00734); test: Km-based fluorogenic assay for inhibition of thrombin (Example 7); format: biochemical; set-up: from tissue; host or cells: human plasma; conditions: FIGS. 9 and 10
Protocol: Thrombin from human plasma was obtained from Enzyme System Products, Dublin, Calif., in glycerol:water 1:1, 11.4 mg/ml, 3800 U/mg, MW 36,700, and stored undiluted at -20° C. It was freshly diluted the day of use.
To dilute for the assay, 0.67 μl (25 Units) of thrombin was pipetted into 5 ml of 0.1 mg/ml BSA (from Pierce, Catalog No. 23209, BSA fraction V, a 2 mg/ml stock in saline with sodium azide), in cold PBS (GIBCO, Catalog No. 14190-136, without calcium chloride and magnesium chloride, pH 7.2) and briefly vortexed, yielding a stock of 5 mU thrombin/μl.
The substrate was N-tBOC-β-Benzyl-Asp-Pro-Arg-7-Amido4-Methylcoumarin HCl and was obtained from Sigma, Catalog No. B4028, Lot 122H0070, F.W. 770.3. Five mg was dissolved in […] DMSO for a 4 mM stock. The stock was stored in 200 μl aliquots at -20° C. in the dark.
An alternative substrate was N-tBOC-Val-Pro-Arg-7-Amido4-Methylcoumarin HCl and was obtained from Sigma, Catalog No. B-9385, Lot 53H0805, F.W. of free base 627.7. Five mg was dissolved in 1.863 ml DMSO for a 4 mM stock. The stock was stored in 200 μl aliquots at -20° C. in the dark.
The fluorescent standard was 7-Amido4-Methylcoumarin and was obtained from Aldrich, Catalog No. 25,737-0, MW 175.19. […]
Initial readings were taken to ensure exclusion of rogue wells with abnormally high backgrounds (λ excitation at 360 nm, bandwidth […], λ emission, 460 nm, bandwidth 40 nm). Then, 25 μl of a 10×stock of the putative inhibitor were added per well, mixed for 5 seconds and read kinetically for 10 minutes at ambient temperature to assess background interference and/or any increase in hydrolysis of substrate due to inhibitor.
The thrombin assay was then initiated by adding 25 μl of thrombin/well with a multichannel pipettor and mixed for 5 seconds. The appearence of the fluorescent product (free 7-amido-4-methylcoumarin released from the peptide by thrombin) was followed simultaneously in 48 wells (one reading per minute for 30 minutes, λ excitation at 360 nm, bandwidth 40 nm, λ emission, 460 nm, bandwidth 40 nm). […]

[2] = test system: human platelets (thrombin-induced aggregation); test: Thrombin-induced platelet aggregation assay; format: cell-based; conditions: for IC50 (estimated concentration which inhibits 50% of the aggregation): 0.5 U/mL human thrombin, 37° C., conjugate: average of 10 argatrobans/RSA used
Protocol: (§1) The conjugate was prepared according to the following protocol. A 15 μM solution of RSA in PBS was reacted with 200 μM argatroban-C6 NHS ester for 1 hour at room temperature. Sham samples consist of the RSA incubated for the same length of time at RT in 2% DMSO in PBS. Each of the samples was then concentrated to a final volume of 1.5 mL using Amicon Centricon 30 filtration/concentration devices. The concentrated samples were then desalted on Pierce's 5 ML Kwiksep excellulose plastic desalting columns. The excluded volumes containing RSA or argatroban-C6-RSA were then subjected to BCA microprotein estimation and lyophilization. In addition, these samples were analyzed by LC/MS, sandwich ELISA assays (described above) to measure thrombin binding and immunoblotting.
Platelets were purified from freshly drawn human blood diluted with the anticoagulant buffer ACD (9 mls of blood to 1 mL of buffer). The blood was centrifuged for 25 min at 200×g. The platelet-rich plasma (PRP) was recovered with a plastic pipette. The PRP was centrifuged for 15 min at 3,000×g in v-shaped plastic tubes. The supernatant, called platelet-poor plasma (PPP), was then removed and saved, and the platelets were resuspended in buffer A1 (35 mM citric acid, 103 mM NaCl, 5 mM each of glucose and KCl, 2 mM CaCl2, 1 mM […], 3.5 mg/mL BSA, 0.1 μM PGE1 and 0.3 U/mL of apyrase at pH 6.5). The resuspended platelets were washed 2 times with buffer A1. After the last wash, the platelets were resuspended in buffer B1 (137 mM NaCl, 2.6 mM KCL 12 mM NaHCO3, 0.3 mM NaH2 PO4, 3 mM CaCl2, 1 mM MgCl2, 5 mM glucose, 3.5 mg/mL BSA and […] apyrase at pH 7.4) at a density of 3×10^5 /μL. The platelets were maintained at room temperature until ready for use.
Various parameters relevant to platelet aggregation were obtained on a four channel aggregometer manufactured by AFFI BIO. In brief, the reaction chambers are warmed to 37° C. and are agitated at a rate of 1,200 rpm. Light is passed through the reaction chambers, with 300 μL of buffer B1 used to set the 100% transmittance level for each chamber. From a series of standardization experiments, it was determined that 0.5 U/mL of human thrombin (Sigma) is an optimal aggregating concentration of thrombin and is used to set. the 0% transmittance for the instrument. Standard conditions for the assay involve incubating 250 μL of the platelet suspension with or without 50 μL of inhibitor diluted in buffer in the reaction chambers for 60 seconds at 37° C. The value of transmittance is now set as 0%. After this measurement, thrombin is added to the reaction chambers (20 μl) and transmittance is measured for the next 6 minutes. Samples were performed in triplicate.

[3] = biological target: rabbit serum albumin (RSA) (Oryctolagus cuniculus, UniProt P49065); test: Mass spectrometric analysis of conjugation to RSA (HPLC/ESIMS, MALDI-TOFMS); format: binding; conditions: HPLC/ESIMS, RSA 4.5 μM, 1 hour, room temperature
Protocol: (§2) All samples were analyzed using a high performance liquid chromatograph (HPLC) coupled in-line to an electrospray ionization (ESI) mass spectrometer (MS) which is termed HPLC/ESIMS. Some samples were also analyzed using a matrix-assisted laser desorption ionization (MALDI) time-of-flight (TOF) mass spectrometer which is termed (MALDI-TOFMS).
(§3) Samples for HPLC/ESIMS were either prepared as duplicate reaction samples or were part of the same reaction samples which were used in the ELISA assays described below. These samples were injected directly only the HPLC/ESIMS without any manipulation other than dilution with water, where the PBS, DMSO, and unreacted derivative molecules are separated from the protein-argatroban derivative molecule conjugate. Samples for MALDI-MS were first HPLC-purified and mixed 1:1 directly on the stainless steel analysis plate with a matrix of 10 mg/ml sinnapinic acid in 50% acetonitrile/50% water. The mixture was then dried with a gentle flow of air to allow for crystallization and inserted into the instrument for laser ionization.
(§4) The HPLC is a Hewlett Packard 1090 Series II liquid chromatogram with a diode array detector. The column used for separation is a Brownlee aquapore OD-300 reversed phase C18 column, 1 mm×10 cm, 300 Å pore size, 7 μm particle diameter. The mass spectrometer to which the HPLC is connected using fused Silica capillary tubing is a Sciex API-300 triple quadrupole mass spectrometer with an ionspray source to allow for atmospheric pressure ionization of a liquid flowing continuously into the instrument. The MALDI-TOFMS is a Perceptive Biosystems Voyager Elite DE instrument run in the linear mode.
as §1, with “A 15 μM solution of RSA in PBS was reacted with 200 μM argatroban-C6 NHS ester for 1 hour at room temperature.” left out

[4] = biological target: human serum albumin (HSA) (Homo sapiens, UniProt P02768); test: Mass spectrometric analysis of conjugation to HSA (HPLC/ESIMS); format: binding; conditions: HSA 5 μM, 1 hour, room temperature
Protocol: as §2, §3, §4

thrombin = test: Sandwich ELISA for thrombin binding of conjugated proteins (anti-thrombin detection); conditions: hGPA conjugate, capture mAb 5F4, FIG. 4
Protocol: (§5) The plates were incubated at room temperature for 30 minutes and washed as above.
as §5
Next, 100 μl/well of ABC-HRP (Vector, catalog no. PK4000) was added, each component diluted 1:500 in PBS, pH 7.4, with 0.1% TWEEN 20 and incubated 30 minutes at room temperature prior to use.

[5] = test system: anti-KLH-argatroban antibody; test: Sandwich ELISA using polyclonal anti-KLH-argatroban antibodies; format: binding, rabbit; conditions: for concentration down to which detected: hGPA conjugate
Protocol: The reaction was quenched by adding hydroxylamine, pH 7.8 to a final concentration of 50 mM and incubating at room temperature for 10 minutes.
Rabbit anti-HSA monoclonal antibody (Boehringer/Mannheim, catalog no. 605001) diluted 1:5000 in PBS, pH 7.4 or mouse anti-hGPA monoclonal antibody (BioAtlan-tic/CRTS, mAb 5F4, diluted to 10 μg/ml in 0.1 M sodium acetate, pH 4.5 or mAb 3C10 diluted 1:500 or mAb 3E4 diluted 1:1000 in PBS, pH 7.4 - each antibody recognizes a different epitope of hGPA), were used to capture respective proteins by aliquotting 100 μl/well into a NUNC Maxisorp F96 plate (catalog no. 439454). The plates were incubated overnight at 4° C., were then blocked by the addition of 200 μl/well of 1% BSA/PBS and incubated at room temperature for 1 hour. The plates were then washed 5 times by submersion in PBS, pH 7.4.
Samples were incubated on the plates for 2 hours at room temperature and then were washed as above.
The plates were then incubated at room temperature for 30 minutes and washed as above.
Biotinylated goat anti-rabbit IgG (Vector, catalog no. BA1000) was diluted 1:1000 in 1% BSA/PBS, pH 7.4 and 100 μl/well added to all wells. The plates were incubated at room temperature for 30 minutes and washed as above.
Next, 100 μl/well of ABC-HRP (Vector, catalog no. PK4000) was added, each component diluted 1:500 in PBS, pH 7.4, with 0.1% TWEEN 20 and incubated 30 minutes at room temperature prior to use. The plates were then washed 10 times by submersion in PBS, pH 7.4.

Chain of human serum albumin (HSA) (P02768 25-609): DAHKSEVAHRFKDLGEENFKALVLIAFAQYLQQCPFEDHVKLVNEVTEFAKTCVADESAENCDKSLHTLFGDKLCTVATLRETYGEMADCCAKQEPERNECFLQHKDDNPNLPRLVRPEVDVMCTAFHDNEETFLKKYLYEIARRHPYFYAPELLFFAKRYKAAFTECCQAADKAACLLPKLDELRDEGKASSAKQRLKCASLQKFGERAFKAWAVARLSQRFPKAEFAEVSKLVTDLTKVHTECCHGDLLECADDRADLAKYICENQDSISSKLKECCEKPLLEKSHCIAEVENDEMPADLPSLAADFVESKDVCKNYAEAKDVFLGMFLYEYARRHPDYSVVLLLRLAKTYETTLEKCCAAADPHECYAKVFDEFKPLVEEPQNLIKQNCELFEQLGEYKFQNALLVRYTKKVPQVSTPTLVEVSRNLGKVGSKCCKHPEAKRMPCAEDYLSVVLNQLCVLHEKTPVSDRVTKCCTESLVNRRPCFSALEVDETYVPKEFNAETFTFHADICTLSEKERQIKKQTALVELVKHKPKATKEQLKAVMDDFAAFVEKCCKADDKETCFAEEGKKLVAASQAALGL
Chain of rabbit serum albumin (RSA) (P49065 25-608): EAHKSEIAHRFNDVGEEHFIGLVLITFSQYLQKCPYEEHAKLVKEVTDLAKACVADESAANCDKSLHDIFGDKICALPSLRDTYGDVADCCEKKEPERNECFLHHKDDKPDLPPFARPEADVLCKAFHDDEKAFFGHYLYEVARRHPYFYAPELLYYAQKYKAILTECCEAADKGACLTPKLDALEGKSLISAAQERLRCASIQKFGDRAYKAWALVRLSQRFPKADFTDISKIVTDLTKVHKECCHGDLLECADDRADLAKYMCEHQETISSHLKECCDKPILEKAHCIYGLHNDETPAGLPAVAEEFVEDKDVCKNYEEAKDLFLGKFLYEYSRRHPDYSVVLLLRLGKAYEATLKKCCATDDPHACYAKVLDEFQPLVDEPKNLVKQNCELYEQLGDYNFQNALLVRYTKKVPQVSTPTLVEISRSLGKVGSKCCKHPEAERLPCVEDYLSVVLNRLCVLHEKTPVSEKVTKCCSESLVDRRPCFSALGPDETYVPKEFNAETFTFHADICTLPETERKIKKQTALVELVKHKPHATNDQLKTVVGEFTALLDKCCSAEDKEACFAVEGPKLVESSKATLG

Molecule: RSA sham: RSA incubated for the same length of time at RT in 2% DMSO in PBS
- thrombin inhibition [1]: not inhibitory at any concentration assayed
- IC50 (estimated concentration which inhibits 50% of the aggregation) [2]: > 150 µM
- interference with platelet aggregation ([2]; even at 150 μM): did not interfere with platelet aggregation even at 150 μM

Molecule: CC1CNc2c(cccc2S(=O)(=O)NC(CCCNC(=N)N)C(=O)N2CCC(C)CC2C(=O)NCCCCCCCCCCCC(=O)ON2C(=O)CCC2=O)C1 (stereo not shown) [compound YL-015-11]
- covalent addition of argatroban derivative molecules per RSA molecule ([3]; 0.5 μM ester): 0-3 argatroban derivative molecules per RSA molecule
- covalent addition of argatroban derivative molecules per RSA molecule ([3]; 100 μM ester): 1-5 argatroban derivative molecules per RSA molecule
- covalent addition of argatroban derivative molecules per HSA molecule ([4]; 0.5 μM ester): 0-4 argatroban derivative molecules per HSA molecule
- covalent addition of argatroban derivative molecules per HSA molecule ([4]; 100 μM ester): 1-5 argatroban derivative molecules per HSA molecule

Molecule: CC1CNc2c(cccc2S(=O)(=O)N[C@@H](CCCNC(=N)N)C(=O)N2CC[C@@H](C)C[C@@H]2C(=O)O)C1 (stereo partly shown) [argatroban, reference compound]
- IC50 (estimated concentration which inhibits 50% of the aggregation) [2]: approximately 0.1 μM
- IC50 (estimated concentration which inhibits 50% of the aggregation) ([2]; listed as Free argatroban): 0.1 to 0.15 µM

B1: hGPA reacted with argatroban-C6 NHS ester: human glycophorin A protein reacted with argatroban-C6 NHS ester (YL-015-35) (conjugate, UniProt P02724 20-150, looked up)
Glycophorin-A: LSTTEVAMHTSTSSSVTKSYISSQTNDTHKRDTYAATPRAHEVSEISVRTVYPPEEETGERVQLAHHFSEPEITLIIFGVMAGVIGTILLISYGIRRLIKKSPSDVKPLPSPDTDVPLSSVEIENPETSDQ
modifications: argatroban-C6 conjugate
- concentration giving a detectable signal (binding of thrombin) (thrombin): approximately 30 ng/ml
- increase of OD490 versus prequenched ester or protein alone ([5]; HSA and hGPA samples, FIGS. 5-8): significant increase of OD490
- concentration down to which detected ([5]; goat anti-rabbit erythrocyte capture): 60 ng/mL
- concentration down to which detected ([5]; mouse anti-hGPA capture): 30 ng/mL
- detection of hGPA-argatroban derivative ([5]; hGPA, 3C10 mAb, FIG. 7): at lower levels
- detection of hGPA-argatroban derivative ([5]; hGPA, 3E4 mAb, FIG. 8): at lower levels
- concentration at which a significant signal above background was detected ([5]; hGPA, 5F4 mAb, FIG. 6): ~12 ng/mL
